From article PMC9482650, “Quantitative fragmentomics allow affinity mapping of interactomes” (Nature Communications, 2022)

T1: CARD11, Q9BXL7
T1 sequence (Q9BXL7 662-765, limits assumed, looked up): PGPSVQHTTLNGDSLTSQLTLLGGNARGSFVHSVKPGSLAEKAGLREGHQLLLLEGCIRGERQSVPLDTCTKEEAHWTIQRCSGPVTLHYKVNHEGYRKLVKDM

T2: GRIP1_2, Q9Y3R0
T2 sequence (Q9Y3R0 145-248, limits assumed, looked up): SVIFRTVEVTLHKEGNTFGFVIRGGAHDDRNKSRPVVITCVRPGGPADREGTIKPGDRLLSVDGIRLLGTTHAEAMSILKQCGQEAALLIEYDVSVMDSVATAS

T3: HTRA4, P83105
T3 sequence (P83105 378-476, limits assumed, looked up): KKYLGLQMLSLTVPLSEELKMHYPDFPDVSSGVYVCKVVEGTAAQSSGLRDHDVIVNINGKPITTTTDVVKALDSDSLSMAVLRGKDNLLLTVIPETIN

T4: NHERF3_3, Q5T2W1
T4 sequence (Q5T2W1 238-333, limits assumed, looked up): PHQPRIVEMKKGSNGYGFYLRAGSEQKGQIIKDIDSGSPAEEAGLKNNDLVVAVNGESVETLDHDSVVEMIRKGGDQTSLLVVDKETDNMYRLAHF

T5: NHERF3_4, Q5T2W1
T5 sequence (Q5T2W1 373-468, limits assumed, looked up): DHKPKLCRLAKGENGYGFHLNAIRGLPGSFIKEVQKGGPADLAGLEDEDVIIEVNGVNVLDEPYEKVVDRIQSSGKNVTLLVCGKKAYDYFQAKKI

T6: PDZD2_2, O15018
T6 sequence (O15018 329-429, limits assumed, looked up): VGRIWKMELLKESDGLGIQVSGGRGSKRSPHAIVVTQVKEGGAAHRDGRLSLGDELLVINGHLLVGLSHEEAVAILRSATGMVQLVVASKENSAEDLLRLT

T7: SIPA1L2, Q9P2F8
T7 sequence (Q9P2F8 945-1036, limits assumed, looked up): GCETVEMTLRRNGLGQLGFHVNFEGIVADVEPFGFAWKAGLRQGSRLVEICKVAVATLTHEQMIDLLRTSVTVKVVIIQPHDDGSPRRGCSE

T8: SNTA1, Q13424
T8 sequence (Q13424 82-180, limits assumed, looked up): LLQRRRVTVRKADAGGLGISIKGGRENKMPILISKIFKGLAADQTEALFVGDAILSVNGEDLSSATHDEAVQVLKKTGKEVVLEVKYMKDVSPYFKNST

T9: SNTG1, Q9NSN8
T9 sequence (Q9NSN8 52-150, limits assumed, looked up): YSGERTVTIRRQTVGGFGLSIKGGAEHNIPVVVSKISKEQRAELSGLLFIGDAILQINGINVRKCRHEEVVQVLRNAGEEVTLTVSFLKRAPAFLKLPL

T10: TJP3_3, O95049
T10 sequence (O95049 375-456, limits assumed, looked up): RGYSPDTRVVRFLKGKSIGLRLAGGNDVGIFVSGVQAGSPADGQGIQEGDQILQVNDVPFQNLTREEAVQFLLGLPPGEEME


How the values were obtained:
Experiment in all cases: holdup assay
Set-up in all cases: key: below the threshold = too weak to quantify, mostly under pKd 3.1 to 4
Details in all cases: plain residues with an end cap or a label only (N-terminal biotin on a linker: ado-ado)
[1] = molecular target: T1, CARD11, Q9BXL7
[2] = molecular target: CASK, O14936
[3] = molecular target: DLG2_2, Q15700
[4] = molecular target: FRMPD2_1, Q68DX3
[5] = molecular target: GOPC, Q9HD26
[6] = molecular target: T2, GRIP1_2, Q9Y3R0
[7] = molecular target: GRIP2_3, Q9C0E4
[8] = molecular target: GRIP2_4, Q9C0E4
[9] = molecular target: HTRA1, Q92743
[10] = molecular target: T3, HTRA4, P83105
[11] = molecular target: Inadl_5, Q8NI35
[12] = molecular target: Inadl_6, Q8NI35
[13] = molecular target: LDB3, O75112
[14] = molecular target: LNX1_3, Q8TBB1
[15] = molecular target: MAGI2_3, Q86UL8
[16] = molecular target: MAGI2_4, Q86UL8
[17] = molecular target: MAGI2_5, Q86UL8
[18] = molecular target: MAST1, Q9Y2H9
[19] = molecular target: T4, NHERF3_3, Q5T2W1
[20] = molecular target: T5, NHERF3_4, Q5T2W1
[21] = molecular target: NHERF4_2, Q86UT5
[22] = molecular target: T6, PDZD2_2, O15018
[23] = molecular target: PICK1, Q9NRD5
[24] = molecular target: PTPN3, P26045
[25] = molecular target: SCRIB_2, Q14160
[26] = molecular target: T7, SIPA1L2, Q9P2F8
[27] = molecular target: T8, SNTA1, Q13424
[28] = molecular target: T9, SNTG1, Q9NSN8
[29] = molecular target: T10, TJP3_3, O95049

Chain of MAGI2_3, Q86UL8 (Q86UL8 600-682): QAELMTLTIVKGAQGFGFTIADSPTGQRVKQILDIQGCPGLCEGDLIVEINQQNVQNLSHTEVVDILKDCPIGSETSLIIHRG
Chain of GRIP2_3, Q9C0E4 (Q9C0E4 238-339): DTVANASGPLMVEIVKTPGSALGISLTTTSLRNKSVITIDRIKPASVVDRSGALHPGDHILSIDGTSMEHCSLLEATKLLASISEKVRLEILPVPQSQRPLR
Chain of MAGI2_4, Q86UL8 (Q86UL8 772-865): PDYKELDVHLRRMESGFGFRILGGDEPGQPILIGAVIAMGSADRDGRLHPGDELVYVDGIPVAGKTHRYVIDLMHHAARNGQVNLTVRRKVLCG
Chain of FRMPD2_1, Q68DX3 (Q68DX3 770-861): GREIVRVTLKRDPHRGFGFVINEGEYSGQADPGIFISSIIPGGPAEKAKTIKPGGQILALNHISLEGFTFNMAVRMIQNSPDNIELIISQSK
Chain of Inadl_5, Q8NI35 (Q8NI35 673-780): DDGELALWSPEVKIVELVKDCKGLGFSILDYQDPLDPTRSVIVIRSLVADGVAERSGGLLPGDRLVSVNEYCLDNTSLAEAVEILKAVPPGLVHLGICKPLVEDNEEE
Chain of PICK1, Q9NRD5 (Q9NRD5 17-115): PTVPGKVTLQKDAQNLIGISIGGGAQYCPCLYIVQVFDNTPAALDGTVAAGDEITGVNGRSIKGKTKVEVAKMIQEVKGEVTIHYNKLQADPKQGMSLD
Chain of SCRIB_2, Q14160 (Q14160 857-960): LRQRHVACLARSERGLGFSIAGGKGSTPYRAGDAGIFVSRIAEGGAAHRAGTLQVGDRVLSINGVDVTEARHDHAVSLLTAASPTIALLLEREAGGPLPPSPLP
Chain of NHERF4_2, Q86UT5 (Q86UT5 220-308): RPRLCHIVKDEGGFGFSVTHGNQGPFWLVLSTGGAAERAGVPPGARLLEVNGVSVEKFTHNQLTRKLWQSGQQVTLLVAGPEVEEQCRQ
Chain of HTRA1, Q92743 (Q92743 360-477): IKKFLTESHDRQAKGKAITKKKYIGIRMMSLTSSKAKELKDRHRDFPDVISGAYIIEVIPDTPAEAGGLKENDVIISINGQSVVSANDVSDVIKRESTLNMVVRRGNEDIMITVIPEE
Chain of Inadl_6, Q8NI35 (Q8NI35 1058-1167): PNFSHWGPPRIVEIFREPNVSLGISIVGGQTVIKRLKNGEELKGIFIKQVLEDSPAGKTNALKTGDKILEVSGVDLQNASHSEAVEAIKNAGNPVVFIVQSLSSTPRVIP
Chain of MAST1, Q9Y2H9 (Q9Y2H9 962-1065): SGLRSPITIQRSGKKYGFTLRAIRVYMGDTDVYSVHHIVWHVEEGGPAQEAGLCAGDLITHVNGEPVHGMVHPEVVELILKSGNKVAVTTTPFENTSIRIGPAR
Chain of DLG2_2, Q15700 (Q15700 189-283): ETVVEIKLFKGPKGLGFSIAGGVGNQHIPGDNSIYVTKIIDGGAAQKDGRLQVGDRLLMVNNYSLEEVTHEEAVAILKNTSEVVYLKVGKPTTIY
Chain of CASK, O14936 (O14936 487-570): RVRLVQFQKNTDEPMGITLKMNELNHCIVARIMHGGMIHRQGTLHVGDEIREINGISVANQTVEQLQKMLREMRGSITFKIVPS
Chain of GRIP2_4, Q9C0E4 (Q9C0E4 446-548): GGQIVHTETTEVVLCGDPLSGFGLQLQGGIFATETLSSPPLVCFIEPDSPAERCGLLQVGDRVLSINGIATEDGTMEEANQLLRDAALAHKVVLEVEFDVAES
Chain of LNX1_3, Q8TBB1 (Q8TBB1 500-596): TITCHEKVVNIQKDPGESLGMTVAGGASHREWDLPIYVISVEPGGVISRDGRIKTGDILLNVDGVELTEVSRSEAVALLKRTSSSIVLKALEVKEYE
Chain of PTPN3, P26045 (P26045 505-587): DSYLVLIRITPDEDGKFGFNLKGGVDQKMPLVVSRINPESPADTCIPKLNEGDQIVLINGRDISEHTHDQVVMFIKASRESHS
Chain of LDB3, O75112 (O75112 1-94): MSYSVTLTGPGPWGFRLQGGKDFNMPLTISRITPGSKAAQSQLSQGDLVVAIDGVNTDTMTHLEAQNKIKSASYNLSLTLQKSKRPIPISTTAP
Chain of MAGI2_5, Q86UL8 (Q86UL8 915-1017): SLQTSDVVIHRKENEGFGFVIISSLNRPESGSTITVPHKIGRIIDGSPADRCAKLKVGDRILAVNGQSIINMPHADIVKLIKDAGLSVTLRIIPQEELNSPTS

Binder | pKd [1] | pKd [2] | pKd [3] | pKd [4] | pKd [5] | pKd [6] | pKd [7] | pKd [8] | pKd [9] | pKd [10] | pKd [11] | pKd [12] | pKd [13] | pKd [14] | pKd [15] | pKd [16] | pKd [17] | pKd [18] | pKd [19] | pKd [20] | further results
SSSVNVSSNL [CXCR1, P25024] | below the threshold | below the threshold | below the threshold | below the threshold | below the threshold | below the threshold | below the threshold | below the threshold | below the threshold | 3.89 | below the threshold | below the threshold | below the threshold | below the threshold | 3.5 | below the threshold | below the threshold | 4.45 | below the threshold | below the threshold | pKd [21]: below the threshold; pKd [22]: 3.69; pKd [23]: 4.12; pKd [24]: 4.48; pKd [25]: below the threshold; pKd [26]: below the threshold; pKd [27]: below the threshold; pKd [28]: below the threshold; pKd [29]: below the threshold
HLSTRQGTCV [ATRNL1, Q5VV63] | below the threshold | below the threshold | 4.21 | 4.1 | 3.76 | below the threshold | below the threshold | below the threshold | 4.91 | 4.33 | 4.04 | below the threshold | below the threshold | below the threshold | below the threshold | 4.97 | 4.04 | 4.35 | below the threshold | below the threshold | pKd [21]: below the threshold; pKd [22]: 4.99; pKd [23]: below the threshold; pKd [24]: 4.54; pKd [25]: 4.02; pKd [26]: below the threshold; pKd [27]: 3.67; pKd [28]: below the threshold; pKd [29]: below the threshold
LPPPESESKV [KCNJ9, Q92806] | 3.73 | below the threshold | below the threshold | below the threshold | below the threshold | below the threshold | below the threshold | below the threshold | below the threshold | below the threshold | below the threshold | below the threshold | below the threshold | below the threshold | 3.64 | below the threshold | below the threshold | 4.29 | below the threshold | below the threshold | pKd [21]: below the threshold; pKd [22]: 4.81; pKd [23]: 4; pKd [24]: 4.4; pKd [25]: below the threshold; pKd [26]: below the threshold; pKd [27]: 3.99; pKd [28]: 4.31; pKd [29]: below the threshold
LLQEEWETVM [PTH1R, Q03431] | below the threshold | below the threshold | below the threshold | below the threshold | 3.85 | 3.63 | below the threshold | below the threshold | 4.68 | below the threshold | below the threshold | 4.12 | below the threshold | below the threshold | 3.59 | below the threshold | 4.4 | 5.01 | below the threshold | 4.64 | pKd [21]: below the threshold; pKd [22]: below the threshold; pKd [23]: 4.22; pKd [24]: 4.92; pKd [25]: below the threshold; pKd [26]: below the threshold; pKd [27]: 4.09; pKd [28]: below the threshold; pKd [29]: below the threshold
NNMAFETTHF [SLC5A12, Q1EHB4] | below the threshold | below the threshold | below the threshold | below the threshold | below the threshold | below the threshold | below the threshold | below the threshold | 3.62 | below the threshold | below the threshold | below the threshold | below the threshold | below the threshold | below the threshold | below the threshold | 4.1 | 4.77 | below the threshold | 4.57 | pKd [21]: below the threshold; pKd [22]: below the threshold; pKd [23]: below the threshold; pKd [24]: below the threshold; pKd [25]: below the threshold; pKd [26]: below the threshold; pKd [27]: below the threshold; pKd [28]: below the threshold; pKd [29]: below the threshold
